Test results taken from the nanobody polyreactivity screen of Harvey et al. (2022).

Experiment: yeast display, Sf9 membrane polyspecificity reagent, FACS + sequencing; frameworks hold sequencing errors
Procedure, shortened: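 In a synthetic yeast display library (Saccharomyces cerevisiae BJ5465), nanobody expression was induced with galactose for 36–48 hours. FACS gates were set low and high (top ~1%) using anti-HA fluorescence for expression and streptavidin fluorescence for binding of the Sf9 membrane reagent. Each polyreactivity label is drawn from the gate of origin.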

| Sequence | polyreactivity (PSR sort gate) |
| --- | --- |
| QVQLEESGGGLVQEGGSLRLSCAASGSIFGGYVMGWYRQAPGKERELVAVITKRGGSTYYADSVKGRFTISRDNAKNTVYFQMNSLKPEDTAVYYCNKDGYYASVLGYDYWGQGTQVTVSS | high polyreactivity |
| QVQLEESGGGLVQGGCSLRLSCAGSGSIFIQYDMGWYRQAPVIERELVATIRSGDSTTYADSVKGRFTISRDNAKNTVYLQMNSLKPEDTAVYYCAKDYRLDYDYDYWGQGTQVTVSS | low polyreactivity |
| QVQLEESGGGVVQAGGSLRISCAASGIIFYRYTMGWYRQAPGKERELVAAIASRGGSTYYADSVKGRFTISRDNAKNTVYLQMNSLKPEDTAVYYCAAGARYGKVRYGYWGQGTQVTVSS | high polyreactivity |
| QVQLEESGGGVVQAGGSLRLSCAASGSILGISAMGWYRPAPGKERALVAAIRTSSGSTYYADSVKVRFTISRDNAKNTVYFQMNSLKPEDTAVYSCAAYAFRYTPYYSWGQGTQVTVSS | high polyreactivity |
| QVQLEESGGRLVQAGGSLRLSCAASGGIFADYAMGWDRPAPGKERELVADISARGGSTYYADSVKGRFTISRDNAKNTVYLQMNSLKPEDTAVYYCAADALGYDYYYWGQGTQVTVSS | low polyreactivity |
| QVQLEESGRGLVQAGVSLRLSSAASGNTFVTNTMVWYRQAPGKERELVAAIDSGGDSYYADSVKGRFTISRDNAKNTVYFQMNSLKPEDTAVYYCAAVGDRNYFSNRRYEYWGQGTQVTVSS | low polyreactivity |
| QVQLEESGVGLVQAGGSLRLRCAASGSTVTDNTKGWYRQAPGKERELVAPISGVGSTYYSESVKGRFTISRDNAKNTVYFQMHSLKPEDTAVYYCNVYWGPFYRSGDKYGYWGQGTQVTVSS | low polyreactivity |
| QVQLEESGVGLVQAGGSLRLSWAASGFIIYINTMGWYRQAPGKERELVAAISQSGVGTSYADSVKGRFTISRDNAKNTVYLQMNRLKPEDTAVYYCATDCARSDVVDRFDYWGQGTQVTVSS | low polyreactivity |
| QVQLEESVGGLVQAGGSLRLSCAASGRIFVRNAMGWYRQAPGKERELVATITSIGGRTYYADSVKGRFTISRDNAKNTVYLQMNSLKPEDTAVYYCAAYNTQSYPAYLRYDYWGQGTQVTVSS | low polyreactivity |
| QVQLEETGGGLVQAGASLRISCAASGSIMGQNGMGWYRHAPGKEREFVAGIGYGTTTNYADSVKGRFTTSRDNAKNTVYLQMISMKPEDTAVYYCAAYQGNGYEFYYWGQGTQVTVRS | low polyreactivity |
| QVQLEETRGGLVQAGGSLRLSCAASGLFFGTYAMGWYRQPPGKEWELVAGITSSGGTTYYADSVKGRFTISRDNAKNTVYLQMNSLKPEDTAVYYCNARAVQSRYGYYYWGQGTQVTVSS | low polyreactivity |
| QVQLEVSAGGLVQAGGSLRLSCAASGSTFGYYAMGWYRQAPGKEWELVAAITSGASTNYSDSVKGRFTISRDNAKNSVYLQMNSLKPEDTAVYYCAAGFQTRTPLNEFDYWGQGTQVTVSS | low polyreactivity |
| QVQLGDSGGGLVQAGGSLRLSCAASGSIFSKYAMGWSRKAPGKERELVATISSSVGSTYYADSVKGRFTISRDNAKNSVYLQMNSLKPEDTAVYYCAARPDYEYGTHYRGGYWGQGTQVTVSS | low polyreactivity |
| QVQLGESGAGLVQAGGSLRLSCAASGRIFLIKAMGCDRQAPGKERELVAAIRRSVGSTYYADSVKGRFTISRDNAKNTVYLQMNSLKPEDTAVYYCATRDYYTYTGRTRYYYWGQGTQVTVSS | high polyreactivity |
| QVQLGESGGCLVQAGGSLRLSCAASGSPFYTYAMGWYRQAPGKERELVAASSFGGGSTYADSVKGRFTISRDNAKNTLYLQMNSLKPDDTAGYYCNTDLYLYGWYPREVQQYAGGDYWGQGTQVTVSS | low polyreactivity |
| QVQLGESGGGLVEAGGSLRLSCAASGSTCKFYVMGWYRQAPGKERELVAAIAIGGSTNYADSVKGRFTISRDNAKNTVSVQMNSLKPEDTAVYYCAAELLQIHYYYVYLSPSFKCDYWGQGTQVTGSS | low polyreactivity |
| QVQLGESGGGLVLAGGSLRLSCAASGSIFTHYAIGWYRQAPGKERELVAAISWSGGSTYYADSVKGRFTISRDNAQNTVYLQMNSLKPEDTAVYYCAALYYSRLSVSGEYDYWGQGTQVTVSS | high polyreactivity |
| QVQLGESGGGLVQAGGSLRISCAASGSILIANAMGWYRQAPGKERELVAPISRSGSTTYYADSVKGRFTISRDNAKNTVYLQMNSLKPEDTAVYYCNARYSLHSYYWFIYDSWGQGTQVTGSS | low polyreactivity |
| QVQLGESGGGLVQAGGSLRLICAASGFIVTTYVMGWYRQAPGKERELVAVISRSGGRTYYADSVKGRFTISRDNAKNTVYLQMNSLKPEDTAVYYCNVDIPVLSHIEYYYWGQGTQVTVSS | low polyreactivity |
| QVQLGESGGGLVQAGGSLRLRCAASGSTFEFYAMGWYRQAPGKERELVASITSSSGPTYYADSVKGRFTISRDNAKNTVYLQMNSLKPEDTAVFYCAKRPIRYYHLLRGNYWGQGTQVTVSS | low polyreactivity |
| QVQLGESGGGLVQAGGSLRLSCAASGFTFTHYSMGWYRQAPGKERELVAAISTSGGSTYYADSVKGRFTISRDTAKNSVYLQMNSLKPEDTAVYYCAARRDGCVLWGYYYWGQGTQVTVSS | low polyreactivity |
| QVQLGESGGGLVQAGGSLRLSCAASGGTYTHYGMGWYRQATGKERELVAAITWTASSTYYADSVKGRFTISRDNAKNTVYLQMNSLKPEDTAVYYCATSYYYWGHTYDYWGQGTQVTVSS | low polyreactivity |

| Sequence | polyreactivity (PSR sort gate) |
| --- | --- |
| QVQLGESGGGLVQAGGSLRLSCAASGIIFRRYAMGWYRQAPGKERELVAVISSGGSTNYADSVKGRFTISRDNAKNTVYLQMNSLKPEDTAVYYCAAPSQSRGYYYWGQGTQVTVSS | high polyreactivity |
| QVQLGESGGGLVQAGGSLRLSCAASGIIIFLYAMGWYRPAPGKEREFVAAINYSSGSTYYADSVKGRFTISRDNAKNTVYLQMNSLKPEDTAVYYCAADPVHRYPGTGGYWGQGTQVTVSS | low polyreactivity |
| QVQLGESGGGLVQAGGSLRLSCAASGLTFPVYPMGWYRQAPGKEREFVTAITYNGGRTYYADSVKGRFTISRDNAKNTVYLQMNSLKPEDTAVYYCNAARSRGANLVPPYRLYYWGQGTQVTVSS | low polyreactivity |
| QVQLGESGGGLVQAGGSLRLSCAASGRIFAYYTMGWYRQAPGKERELVAAITSGGSTYYADSVKGRFTISRDYAKNTVYLQMNSLKPEATAVYYCAAGWYTPVYLYYYWGQGTQVTVSS | high polyreactivity |
| QVQLGESGGGLVQAGGSLRLSCAASGRIIPYYAMGWYRQAPGKERELVAAISLSGGSTYYADSVKGRFTISRDIAKNTVYLQMNSLKPEDTAVYYCNAVASTYGYYWYPGLGYDYWGQGTQVTVSS | low polyreactivity |
| QVQLGESGGGLVQAGGSLRLSCAASGRILAKYAMGWSRQAPWKEREFVAAISYSGGSTYYADSVKGRFTISRDNAKNTVYLQMNSLKPEDTAVYYCAARYTFDRWKFGYWGQGTQVTVSS | high polyreactivity |
| QVQLGESGGGLVQAGGSLRLSCAASGRILSVYVMGWYRQAPGKERELVAAIRRGGYTYYADSVKGRFTISRDNAKNTVYLQMNSLKQEDTAVYYCNARQRPPPYYYWGQGTQLTVSS | high polyreactivity |
| QVQLGESGGGLVQAGGSLRLSCAASGRTFIYDAMGWYRQAPGKERELVAGISRNGGRTYYADSVKGRFTISRDNAKNTVYLKMNSLKPEDTAVYYCIARTYSYRGYNYWGQGTQVTVSS | high polyreactivity |
| QVQLGESGGGLVQAGGSLRLSCAASGSIFNYYTMGWYRQAPGKERELVAAISSSGGSTYYADSVKGRFTISRDNAKNTVYLQMNSRKPEDTAVYYCAALGRYFTSAGGYWGQGTQVTVSS | high polyreactivity |
| QVQLGESGGGLVQAGGSLRLSCAASGSIFSNYAMGWYRQAPWKERELVATIRLSGGSTYYADSVKGRFTISRDNAKNTVYLQMNSLKPEDTAVYDCAARIHWPYWYARLDYWGQVTQVTVSS | high polyreactivity |
| QVQLGESGGGLVQAGGSLRLSCAASGSIFTGNAMGWYRQAPGKERELVAAITNGGITNYADSVKRRFTISRDNAKNTFYLQMNSLKPEDTAVYYCAADYVDFYSFRRFDYWGQGSQVTVSS | low polyreactivity |
| QVQLGESGGGLVQAGGSLRLSCAASGSTFGGYAMGWYRQAPGKERELVAAISSSGTSTYYADSVKGRFTISRDNAKNTVYLQMNSLKPDDTAVYYCATDFSFFSRFDYWGQGTQVTVSS | low polyreactivity |
| QVQLGESGGGLVQAGGSLRLSCAASGSTFPRNAMGWYRQATGKERELVATITSSGGGTYYADSVKGRFTISRDNAKITVYLQMNSLKPEHTAVYYCNADGPAGDAFDYWGQGTQVTVSS | low polyreactivity |
| QVQLGESGGGLVQAGGSLRLSCAASGSTLRNNAMGWYRQAPGKERELVASIRTRGGSTRYADSVKGRFTISRDNAKNTVYLQMNSLKPEDTAVYYCAAQYYGKGWQLDYWGQGSQVTVSS | high polyreactivity |
| QVQLGESGGGLVQAGGSLRLSCAPSGNNFVGNAMGWCRQAAGKERELVAAIRRSGGTTYYADSVKGRFTISRDNAKNTVYLQMNSLKPEDTAVYYCAASRPYQGDYWGQGTQVTVSS | low polyreactivity |
| QVQLGESGGGLVQAGGSLRLTCAASGGTFKGYAMGWYRQAPGKERELVAAISWSGVRTYYADSVKGRFTISRDNAKNTVYLQMNSLKPEDTAVYYCAASWLLRMGYWGQGTQVTVSS | high polyreactivity |
| QVQLGESGGGLVQAGGSLSLSCAASGITLHNYAMGWYRQAPGKERELVAAISRRGGNTYYADSVKGRFTISRDNAKNTVYLQMNSLIPEDTAVSYCAAYYHGRMDYWGQGTQVTVSS | high polyreactivity |
| QVQLGESGGGLVQEGGSLRLSCAASGRILSRYAKGWYRQAPGKERELVAAISRSGGSTYYADSVKGRFTISRDNAKNTVYLQMNSLKPEDTAVYYWARDVSLSTGYDYWGQGTQVTVSS | high polyreactivity |
| QVQLGESVVCLDQAGVSLPLSCAASGFTFKYYTMRWFRQAPGKERELVAAISRRGGSTYYADSVKGRFTISRDNAKNTVYLQMKSLKPEDTAVYYCAADYRYVSTPYGYDYWGQGTQVTVSS | high polyreactivity |
| QVQLGETRGGLVQAGGSLRLSCAASASIFAPYAMGGYRQAPGKERELVAAITWSGDSTYYADSVKGRFTISRDNAKYTVYLQMNSLKPEDTAVYYCATEEVYGQGNYWGQGTQVTVSS | low polyreactivity |
| QVQLHESGGGLLQAGGGLRLSCAASGSISSTGFMCWYRQAPGKEREPVAAIAPGTTTYYADSVKGRFTISRDNAKNSVYLQKNSLRPEDTAVYYCAVFTDNRVAFLYWGQGTQVTVSS | low polyreactivity |
